{
  "source": "paper PMC11463501",
  "about": "(bioRxiv, 2024)",
  "binders": {"B1": {"name": "hu11E6 Fab (Fab, V domains shown)", "VH": "EVQVVESGGGLVQPGRSLRLSCTTSGFTFTDYYVSWVRQAPGKALEWLGFIRNKVNGYTTEFSSSVKGRFTISRDNSKSILYLQMNSLKIEDTAVYYCARVSYYGRGWYFDYWGQGTTLTVSS", "VL": "DIVMTQSPSSLSASVGDRVTISCRASQDIDNYLSWFQQKPGGTVKLLIYYTSRLHSGVPSRFSGSGSGTDYTLTISSLQPEDIATYFCQQGNTFPWTFGGGTKLEIK"}, "B2": {"name": "PTg S1 subunit ([change], [change]) (natural protein)", "chain": "DDPPATVYKYDSRPPEDVFQNGFTAWGNNDNVLDHLTGRSCQVGSSNSAFVSTSSSRRYTEVYLEHRMQEAVEAERAGRGTGHFIGYIYEVRADNNFYGAASSYFEYVDTYGDNAGRILAGALATYQSGYLAHRRIPPENIRRVTRVYHNGITGETTTTEYSNARYVSQQTRANPNPYTSRRSVASIVGTLVRMAPVIGACMARQAESSEAMAAWSERAGEAMVLVYYESIAYSF"}, "B3": {"name": "hu1B7mut IgG (hu1B7 heavy chain S56A, Q61A, Q64A) (antibody, V domains shown)", "VH": "QVQLVQSGAEVKKPGASVKVSCKASGYKFTSYWMHWVRQAPGQGLEWIGNIFPGSGATNYAAKFAGRVTLTVDTSTSTAYMELSSLRSEDTAVYYCTRWLSGAYFDYWGQGTTVTVSS", "VL": "QIVLTQSPATLSVSPGERVTLTCSASSSVSFMYWYQQKPGRAPKPLIYLTSNLPSGVPARFSGSGSGTSYTLTINSLEAEDAATYYCQQWSSHPPTFGSGTKLEIK"}, "B4": {"name": "hu1B7 Fab (Fab, V domains shown)", "VH": "B3 VH with A57S, A62Q, A65Q", "VL": "B3 VL"}, "B5": {"name": "hu1B7 IgG (antibody, V domains shown)", "VH": "B3 VH with A57S, A62Q, A65Q", "VL": "B3 VL"}},
  "key": {"PTg S2 subunit": {"target": "PTg S2 subunit (Bordetella pertussis, UniProt P04978)", "sequence (P04978 28-226)": "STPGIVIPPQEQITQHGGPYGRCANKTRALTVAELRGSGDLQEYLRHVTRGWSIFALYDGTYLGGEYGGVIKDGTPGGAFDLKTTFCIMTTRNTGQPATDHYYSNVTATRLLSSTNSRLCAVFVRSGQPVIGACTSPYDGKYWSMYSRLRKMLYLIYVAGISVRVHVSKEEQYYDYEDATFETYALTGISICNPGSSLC", "assay": "cryo-EM structure"}, "PTg S3 subunit": {"target": "PTg S3 subunit (Bordetella pertussis, UniProt P04979)", "sequence (P04979 29-227)": "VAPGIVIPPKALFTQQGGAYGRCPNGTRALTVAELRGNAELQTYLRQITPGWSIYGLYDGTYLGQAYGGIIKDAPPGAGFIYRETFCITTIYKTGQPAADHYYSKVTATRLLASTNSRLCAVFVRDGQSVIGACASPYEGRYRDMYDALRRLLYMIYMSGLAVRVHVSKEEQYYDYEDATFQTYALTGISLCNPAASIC", "assay": "cryo-EM structure"}, "PTg S5 subunit [1]": {"target": "T1, PTg S5 subunit (Bordetella pertussis, UniProt P04981 35-133)", "T1 sequence": "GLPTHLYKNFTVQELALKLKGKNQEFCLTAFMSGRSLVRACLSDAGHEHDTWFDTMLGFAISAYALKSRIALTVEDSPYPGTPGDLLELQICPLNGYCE", "assay": "cryo-EM structure"}, "[2]": {"target": "Pertussis toxin (PT), enzymatically active (Bordetella pertussis; strain of bought …, UniProt P04977;P04978;P04979;P0A3R5;P04981)", "sequence (P04978 28-226, chain 2 of 3)": "as the sequence (P04978 28-226) above", "sequence (P04979 29-227, chain 3 of 3)": "as the sequence (P04979 29-227) above", "sequence (P0A3R5 43-152, chain 4 of 3)": "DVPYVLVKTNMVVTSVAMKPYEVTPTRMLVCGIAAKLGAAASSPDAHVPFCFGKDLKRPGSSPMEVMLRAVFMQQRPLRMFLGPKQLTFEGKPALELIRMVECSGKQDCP", "assay": "ELISA"}, "PTg S5 subunit [3]": {"target": "PTg S5 subunit (Bordetella pertussis, UniProt P04981)", "assay": "cryo-EM structure"}},
  "note": "Changes are numbered by the printed parent chain. Names may count otherwise.",
  "data": [
    {"binder": "B1", "values": [
      {"measurement": "binding result", "setting": "PTg S2 subunit", "result": "binds"},
      {"measurement": "binding result", "setting": "PTg S3 subunit", "result": "binds"}
    ]},
    {"binder": "B2", "values": [
      {"measurement": "binding result", "setting": "PTg S5 subunit [1]", "result": "binds"}
    ]},
    {"binder": "B3", "values": [
      {"measurement": "binding result", "setting": "[2]", "result": "binds"}
    ]},
    {"binder": "B4", "values": [
      {"measurement": "binding result", "setting": "PTg S5 subunit [3]", "result": "binds"}
    ]},
    {"binder": "B5", "values": [
      {"measurement": "binding result", "setting": "[2]", "result": "binds"}
    ]}
  ]
}
